From patent US11976099B2, “Compositions and methods for treatment of bone associated diseases” (THE NATIONAL INSTITUTE FOR BIOTECHNOLOGY IN THE NEGEV LTD., priority 2016, dated 2024) come the findings set out here.

Changes are numbered by the printed parent chain. In names and notes the source's numbering stands.

Assay [1] deals with MDA-MB-231 breast cancer cells. Kind of assay: Direct cell binding assay, flow cytometry, MDA-MB-231. The class given is cell-based, human. The conditions noted are these: for direct cell binding: 1 μM, 2.5 μM and 7.5 μM labeled protein; for relative cell binding ability: MDA-MB-231. The method, then: M-CSFM and two variants of M-CSFRGD (4.22 and 5.6) were labeled with a molar ratio of 1:1 of DyLight™ 488 NHS Ester (Thermo Fisher Scientific, USA) and the purified protein. The solution was incubated for 1 h at room temperature and the residual unbound dye was washed three times with Vivaspin (GE Healthcare life sciences, UK) with a 3,000 Da cutoff. […] MDA-MB-231 breast cancer cells were used for direct cell binding of the purified proteins. Cells were plated at a density of 10^5 per well in 96-well plates and were washed with […] of PBSA 0.1%. The cells were centrifuged at 150 g for 5 min, and the supernatant was removed; this step was repeated twice. Then, the labeled M-CSFRGD protein variants and the M-CSFM monospecific control were added in IBB+1% BSA to the cells at different concentrations (1, 2.5 and 7.5 μM) in a total volume of 100 μl and incubated at 4° C. with gentle agitation for 2 h. For c-FMS expression, the cells were stained with PE-anti human CD115 (BioLegend, USA) at a dilution of 1:50 and for αvβ3 integrin expression with FITC-anti human β3 integrin (BioLegend, USA) at a dilution of 1:25 for 30 min. Then, the cells were washed twice as described above and analyzed with Accuri C6 flow cytometry analyzer (BD Biosciences, USA). The mean fluorescence of the cells was subtracted from the other samples. The experiment was repeated three times at each concentration.
Assays for direct cell binding were conducted on breast cancer cell line MDA-MB-231 and murine primary cells with flow cytometer. MDA-MB-231 was used because the cells express αvβ3 integrin and c-FMS on the cell membrane, a protein expression pattern that imitates the osteoclast state just before reaching full differentiation and maturation. […] Murine primary cells that were obtained from bone marrow were tested for binding without any induction of differentiation (t=0). Such cells express high levels of c-FMS and low levels of αvβ3 integrin (FIGS. 11A and 11B), a state that imitates an early osteoclast differentiation stage.
On the technique in general: A flow cytometer gives signals particle by particle.

The next assay concerns the target human c-FMS (Homo sapiens, UniProt P07333). Nature of the assay: c-FMS phosphorylation assay in CD14+ monocytes (western blot). On the set-up: host or cells: human peripheral blood CD14+ monocytes. Type of assay: cell-based. The conditions noted are these: CD14+ cells; 0.5 nM human M-CSFWT + 100 nM variant. The method, then:
Phosphorylation assay—The experiment was performed on two cell types, BMMs and human peripheral blood CD14^+ monocytes, as follows: (i) BMMs from wild-type C57BL6 mice were purified by flushing the bone marrow from the femur and tibia as previously described (Levaot, N., Simoncic, P. D., Dimitriou, I.D., Scoffer, A., La Rose, J., Ng, A. H. M. et al. (2011) J. Clin. Invest. 121, 3244-3257). The cells were treated with ACK red cells lysis buffer (ThermoFisher Scientific, USA) and grown in complete α-MEM growth medium (Sigma-Aldrich, USA) containing 10% fetal bovine serum (FBS) (selected to not contain LPS to prevent macrophage differentiation), penicillin, streptomycin and L-glutamine. Recombinant murine M-CSF was added at a concentration of 40 ng/ml (Peprotech, Israel) for three days at 37° C. to induce adhesion and proliferation of monocytes. Then, 7×10^5 cells were transferred into a 6-well plate with complete α-MEM and 20 ng/ml murine M-CSF and RANKL (R&D Systems, USA) for 48 h. (ii) CD 14^+ monocytes (Lonza, Switzerland) were grown in complete α-MEM medium for five days in the presence of human M-CSF (20 ng/mL). […] The images were quantified using ImageJ. The quantified intensity values of the phosphorylated c-FMS for each sample were divided by the total c-FMS intensity, and then by the β-actin expression intensity. […]
On the technique in general: In western blotting, separated proteins are transferred to a membrane and probed.

Sequence of human c-FMS (P07333 20-972): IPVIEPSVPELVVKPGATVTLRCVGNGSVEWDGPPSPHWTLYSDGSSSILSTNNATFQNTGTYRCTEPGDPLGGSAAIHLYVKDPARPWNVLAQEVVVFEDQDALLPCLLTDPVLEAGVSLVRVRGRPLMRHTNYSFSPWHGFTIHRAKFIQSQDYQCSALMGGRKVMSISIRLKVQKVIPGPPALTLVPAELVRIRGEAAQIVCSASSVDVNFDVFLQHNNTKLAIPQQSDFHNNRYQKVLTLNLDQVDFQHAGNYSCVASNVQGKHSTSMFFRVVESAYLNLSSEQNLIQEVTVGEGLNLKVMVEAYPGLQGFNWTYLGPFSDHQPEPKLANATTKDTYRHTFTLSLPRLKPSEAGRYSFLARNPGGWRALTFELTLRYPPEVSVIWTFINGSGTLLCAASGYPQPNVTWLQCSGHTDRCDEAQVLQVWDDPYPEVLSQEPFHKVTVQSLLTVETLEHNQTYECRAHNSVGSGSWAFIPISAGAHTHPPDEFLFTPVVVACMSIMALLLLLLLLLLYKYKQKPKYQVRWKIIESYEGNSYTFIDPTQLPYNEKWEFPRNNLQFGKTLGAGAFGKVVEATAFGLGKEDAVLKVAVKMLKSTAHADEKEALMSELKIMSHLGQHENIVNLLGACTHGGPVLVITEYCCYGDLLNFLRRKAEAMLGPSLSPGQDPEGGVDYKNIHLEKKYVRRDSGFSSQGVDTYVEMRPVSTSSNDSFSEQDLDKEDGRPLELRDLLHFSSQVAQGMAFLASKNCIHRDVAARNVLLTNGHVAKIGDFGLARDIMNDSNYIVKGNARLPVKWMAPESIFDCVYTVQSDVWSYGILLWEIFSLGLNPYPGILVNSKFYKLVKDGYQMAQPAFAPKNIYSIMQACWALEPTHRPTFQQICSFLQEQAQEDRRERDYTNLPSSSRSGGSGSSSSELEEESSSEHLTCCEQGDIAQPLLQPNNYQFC

B1: 5.6: bispecific M-CSFRGD variant from sort five; M-CSFM loop replaced by XXXRGDXXX motif; binds c-FMS and αvβ3 integrin (protein)
chain: EEVSEYCSHMIGSGHLQSLQRLIDTYPRGDMCSITFEFVDQEQLKDPVCYLKKAFLLVQDIMEDTMRFRDNTPNAIAIVQLQELSLRLKSCFTKDYEEHDKACVRTFYETPLQLLEKVKNVFNETKNLLDKDWNIFSKNCNNSFAECSSQGHERQSEGS
modifications: left off: small tags and cut ends
As to B1, in assay [1], the direct cell binding entry is recorded as “showed binding” and the “relative cell binding ability” value was “best binding ability”.

B2: M-CSFM: 158 amino acid M-CSF with cysteine at position 31 replaced by serine (SEQ ID NO: 2) (protein)
chain: EEVSEYCSHMIGSGHLQSLQRLIDSQMETSSQITFEFVDQEQLKDPVCYLKKAFLLVQDIMEDTMRFRDNTPNAIAIVQLQELSLRLKSCFTKDYEEHDKACVRTFYETPLQLLEKVKNVFNETKNLLDKDWNIFSKNCNNSFAECSSQGHERQSEGS
For the molecule B2, in assay [1], the direct cell binding result is recorded as “showed binding” and the “relative cell binding ability” value is listed as “weakest binder”. In addition, the c-FMS phosphorylation level entry with human c-FMS is reported as “acted as an agonist, inducing phosphorylation”.

B3: M-CSFC31S,M27R: M-CSF double mutant containing both C31S and M27R; monomeric, monospecific c-FMS antagonist (protein)
chain: B2 chain with M27R
On to B3, for which the c-FMS phosphorylation level entry with human c-FMS was “decreased phosphorylation of c-FMS”.
